Measurements: doi:10.1101/2022.12.06.519310

Molecular target: WDR5_(WD40), as used in the ITC (human)
Test: ITC

B1: unmodified H3 tail peptide of the ITC (H3K4unmodQ5unmod) (peptide)
chain: ARTKQTARKSTGGKA
modifications: not checked
Kd: 20.2 µM
